The values below come from article PMC4787809 (Nucleic Acids Research, 2015).

What is called Kd is the constant that tells how readily two partners part at equilibrium. As usually defined, the stoichiometry N is the number of molecules, sites or subunits per partner or assembly.

In data set [1] the target is Cascade (Cas7-tagged prep) (Escherichia coli) (UniProt Q46901+P76632+Q46899+Q46898+Q46897). The experiment in a line: EMSA. (Mobility shift assays separate free from complexed probe on a gel.)
In data set [2] the target is T1, Cse1 (tail subunit of E. coli Cascade) (Escherichia coli K12, UniProt Q46901 1-502).
T1 sequence: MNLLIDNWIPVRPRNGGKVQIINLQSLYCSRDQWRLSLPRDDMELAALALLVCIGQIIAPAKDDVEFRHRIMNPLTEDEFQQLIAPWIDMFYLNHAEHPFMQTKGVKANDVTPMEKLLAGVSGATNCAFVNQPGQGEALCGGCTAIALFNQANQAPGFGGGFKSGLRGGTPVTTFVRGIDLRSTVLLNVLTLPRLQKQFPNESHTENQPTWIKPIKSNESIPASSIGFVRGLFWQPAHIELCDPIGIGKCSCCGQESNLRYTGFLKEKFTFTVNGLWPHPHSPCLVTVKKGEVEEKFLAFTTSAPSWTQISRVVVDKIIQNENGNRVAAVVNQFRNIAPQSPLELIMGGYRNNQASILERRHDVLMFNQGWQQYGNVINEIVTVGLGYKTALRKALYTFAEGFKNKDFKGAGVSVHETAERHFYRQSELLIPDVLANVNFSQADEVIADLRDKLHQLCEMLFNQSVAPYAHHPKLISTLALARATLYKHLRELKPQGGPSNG
As to the kind of experiment: crystal structure.

The data set “crystal structure” deals with the molecule itself. The experiment in a line: crystal structure.
The target in data set [3] is T2, Cascade (Cse2-tagged prep) (Escherichia coli, UniProt Q46901;P76632;Q46899;Q46898;Q46897 1-502;1-160;1-363;1-224;1-199).
T2 sequence 1: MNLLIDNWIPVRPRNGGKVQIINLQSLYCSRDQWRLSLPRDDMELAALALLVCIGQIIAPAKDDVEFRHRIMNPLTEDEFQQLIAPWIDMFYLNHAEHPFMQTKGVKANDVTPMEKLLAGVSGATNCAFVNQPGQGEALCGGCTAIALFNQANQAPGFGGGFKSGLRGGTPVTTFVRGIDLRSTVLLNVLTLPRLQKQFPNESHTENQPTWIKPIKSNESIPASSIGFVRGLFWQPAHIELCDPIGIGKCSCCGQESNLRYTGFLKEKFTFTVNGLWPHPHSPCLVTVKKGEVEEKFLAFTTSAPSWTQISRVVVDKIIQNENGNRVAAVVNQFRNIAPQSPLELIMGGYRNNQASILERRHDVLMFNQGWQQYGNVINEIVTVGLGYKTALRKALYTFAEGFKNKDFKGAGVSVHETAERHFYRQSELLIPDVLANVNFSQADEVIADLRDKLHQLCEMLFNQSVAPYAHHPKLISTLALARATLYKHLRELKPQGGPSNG
T2 sequence 2: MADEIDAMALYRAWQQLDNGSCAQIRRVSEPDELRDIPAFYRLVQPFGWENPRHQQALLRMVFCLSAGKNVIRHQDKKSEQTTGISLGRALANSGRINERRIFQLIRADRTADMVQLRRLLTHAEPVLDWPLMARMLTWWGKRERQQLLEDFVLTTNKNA
T2 sequence 3: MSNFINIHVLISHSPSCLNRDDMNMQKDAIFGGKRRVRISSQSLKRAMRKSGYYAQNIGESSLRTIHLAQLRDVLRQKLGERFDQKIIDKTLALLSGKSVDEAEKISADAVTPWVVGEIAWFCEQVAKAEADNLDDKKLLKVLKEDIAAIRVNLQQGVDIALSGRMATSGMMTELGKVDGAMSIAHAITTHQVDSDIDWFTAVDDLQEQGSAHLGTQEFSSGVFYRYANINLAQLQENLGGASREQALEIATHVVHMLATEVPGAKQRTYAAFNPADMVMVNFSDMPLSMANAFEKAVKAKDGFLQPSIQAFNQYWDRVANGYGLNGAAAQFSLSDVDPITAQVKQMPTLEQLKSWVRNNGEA
T2 sequence 4: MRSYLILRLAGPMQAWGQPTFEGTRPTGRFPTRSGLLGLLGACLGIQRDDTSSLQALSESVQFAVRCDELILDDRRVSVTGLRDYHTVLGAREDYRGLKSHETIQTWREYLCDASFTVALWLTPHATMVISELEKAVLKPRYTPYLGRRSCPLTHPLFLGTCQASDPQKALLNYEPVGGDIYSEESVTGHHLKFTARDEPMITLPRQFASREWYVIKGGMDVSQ
T2 sequence 5: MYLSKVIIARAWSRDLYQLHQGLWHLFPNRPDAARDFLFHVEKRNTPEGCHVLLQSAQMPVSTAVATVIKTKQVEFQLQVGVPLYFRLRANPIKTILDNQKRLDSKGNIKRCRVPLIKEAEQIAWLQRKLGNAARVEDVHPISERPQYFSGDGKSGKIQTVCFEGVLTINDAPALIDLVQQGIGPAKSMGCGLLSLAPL
As to the kind of experiment: EMSA.

The molecule “GCGCGGCAAGCCGAAAGCATGACGGTATTGTTCAGATCCTGGCTTGCCAACAGTGATTGCTCGGGAGTCGCT (double strand) [72 bp dsDNA target (+21), CAT PAM]” had a Kd in data set [1] of 13.3 nM.

B1: Cas5e (subunit of E. coli Cascade) (natural protein)
chain: MRSYLILRLAGPMQAWGQPTFEGTRPTGRFPTRSGLLGLLGACLGIQRDDTSSLQALSESVQFAVRCDELILDDRRVSVTGLRDYHTVLGAREDYRGLKSHETIQTWREYLCDASFTVALWLTPHATMVISELEKAVLKPRYTPYLGRRSCPLTHPLFLGTCQASDPQKALLNYEPVGGDIYSEESVTGHHLKFTARDEPMITLPRQFASREWYVIKGGMDVSQ
For B1, the binding result in data set [2] is on record as “binds”.

B2: Cas7 as in the crystallised Cascade (natural protein)
chain: MSNFINIHVLISHSPSCLNRDDMNMQKDAIFGGKRRVRISSQSLKRAMRKSGYYAQNIGESSLRTIHLAQLRDVLRQKLGERFDQKIIDKTLALLSGKSVDEAEKISADAVTPWVVGEIAWFCEQVAKAEADNLDDKKLLKVLKEDIAAIRVNLQQGVDIALSGRMATSGMMTELGKVDGAMSIAHAITTHQVDSDIDWFTAVDDLQEQGSAHLGTQEFSSGVFYRYANINLAQLQENLGGASREQALEIATHVVHMLATEVPGAKQRTYAAFNPADMVMVNFSDMPLSMANAFEKAVKAKDGFLQPSIQAFNQYWDRVANGYGLNGAAAQFSLSDVDPITAQVKQMPTLEQLKSWVRNNGEA
B2: in “crystal structure”, the “stoichiometry N” value stood at 6.

B3: 72 bp dsDNA target (+21), CAT PAM (dsDNA)
DNA 1: GCGCGGCAAGCCGAAAGCATGACGGTATTGTTCAGATCCTGGCTTGCCAACAGTGATTGCTCGGGAGTCGCT
DNA 2: AGCGACTCCCGAGCAATCACTGTTGGCAAGCCAGGATCTGAACAATACCGTCATGCTTTCGGCTTGCCGCGC
B3 returned a Kd in data set [3] of 1.14 nM.
